Data as given in patent publication US20240294593A1 (Genentech, published 2024).

target: T1, human PD-1-His (human, UniProt Q15116 25-167, limits assumed); test: Octet
T1 construct: Antigen of the Octet assays; not shown: His tag
T1 sequence (Q15116 25-167 limits assumed): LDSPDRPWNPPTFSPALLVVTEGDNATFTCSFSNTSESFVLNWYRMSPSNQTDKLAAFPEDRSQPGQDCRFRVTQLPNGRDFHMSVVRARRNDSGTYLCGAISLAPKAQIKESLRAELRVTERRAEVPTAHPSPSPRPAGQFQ

Binder | Kd | koff | kon
H1.37_L1 (antibody, human IgG1, kappa, V domains shown, also called VH-S54A; Kabat 52A; copies: 2 + 2) VH: EVQLVESGGGLVQPGGSLRLSCAASGFTFSSFGMHWVRQAPGKGLEWVSYIASGSSIIYYADSVKGRFTISRDNAKNSLYLQMNSLRAEDTAVYYCARGGRLVWSPDYWGQGTLVTVSS VL: DIVMTQSPDSLAVSLGERATINCKSSQSLLNSGNQKNYLTWYQQKPGQPPKLLIYWASTRESGVPDRFTGSGSGTDFTLTISSLQAEDVAVYYCQNDYSYPFTFGSGTKLEIKR | 56 nM | 0.00763 s⁻¹ | 136000 M⁻¹ s⁻¹
H1.54_L1 (antibody, human IgG1, kappa, V domains shown, also called VH-G56A; Kabat 53A; copies: 2 + 2) VH: EVQLVESGGGLVQPGGSLRLSCAASGFTFSSFGMHWVRQAPGKGLEWVSYISSASSIIYYADSVKGRFTISRDNAKNSLYLQMNSLRAEDTAVYYCARGGRLVWSPDYWGQGTLVTVSS VL: DIVMTQSPDSLAVSLGERATINCKSSQSLLNSGNQKNYLTWYQQKPGQPPKLLIYWASTRESGVPDRFTGSGSGTDFTLTISSLQAEDVAVYYCQNDYSYPFTFGSGTKLEIKR | 34.5 nM | 0.00432 s⁻¹ | 125000 M⁻¹ s⁻¹
H1.53_L1 (antibody, human IgG1, kappa, V domains shown, also called VH-S55E; Kabat 52aE) VH: EVQLVESGGGLVQPGGSLRLSCAASGFTFSSFGMHWVRQAPGKGLEWVSYISEGSSIIYYADSVKGRFTISRDNAKNSLYLQMNSLRAEDTAVYYCARGGRLVWSPDYWGQGTLVTVSS VL: DIVMTQSPDSLAVSLGERATINCKSSQSLLNSGNQKNYLTWYQQKPGQPPKLLIYWASTRESGVPDRFTGSGSGTDFTLTISSLQAEDVAVYYCQNDYSYPFTFGSGTKLEIKR | 96 nM | 0.0283 s⁻¹ | 295000 M⁻¹ s⁻¹
H1.40_L1 (antibody, human IgG1, kappa, V domains shown, also called VH-S54V; Kabat 52V; copies: 2 + 2) VH: EVQLVESGGGLVQPGGSLRLSCAASGFTFSSFGMHWVRQAPGKGLEWVSYIVSGSSIIYYADSVKGRFTISRDNAKNSLYLQMNSLRAEDTAVYYCARGGRLVWSPDYWGQGTLVTVSS VL: DIVMTQSPDSLAVSLGERATINCKSSQSLLNSGNQKNYLTWYQQKPGQPPKLLIYWASTRESGVPDRFTGSGSGTDFTLTISSLQAEDVAVYYCQNDYSYPFTFGSGTKLEIKR | 231 nM | 0.0293 s⁻¹ | 127000 M⁻¹ s⁻¹
H1.39_L1 (antibody, human IgG1, kappa, V domains shown, also called VH-S54G; Kabat 52G; copies: 2 + 2) VH: EVQLVESGGGLVQPGGSLRLSCAASGFTFSSFGMHWVRQAPGKGLEWVSYIGSGSSIIYYADSVKGRFTISRDNAKNSLYLQMNSLRAEDTAVYYCARGGRLVWSPDYWGQGTLVTVSS VL: DIVMTQSPDSLAVSLGERATINCKSSQSLLNSGNQKNYLTWYQQKPGQPPKLLIYWASTRESGVPDRFTGSGSGTDFTLTISSLQAEDVAVYYCQNDYSYPFTFGSGTKLEIKR | 115 nM | 0.0178 s⁻¹ | 154000 M⁻¹ s⁻¹
H1.41_L1 (antibody, human IgG1, kappa, V domains shown, also called VH-S54H; Kabat 52H; copies: 2 + 2) VH: EVQLVESGGGLVQPGGSLRLSCAASGFTFSSFGMHWVRQAPGKGLEWVSYIHSGSSIIYYADSVKGRFTISRDNAKNSLYLQMNSLRAEDTAVYYCARGGRLVWSPDYWGQGTLVTVSS VL: DIVMTQSPDSLAVSLGERATINCKSSQSLLNSGNQKNYLTWYQQKPGQPPKLLIYWASTRESGVPDRFTGSGSGTDFTLTISSLQAEDVAVYYCQNDYSYPFTFGSGTKLEIKR | 74.6 nM | 0.0104 s⁻¹ | 140000 M⁻¹ s⁻¹
H1.42_L1 (antibody, human IgG1, kappa, V domains shown, also called VH-S54K; Kabat 52K) VH: EVQLVESGGGLVQPGGSLRLSCAASGFTFSSFGMHWVRQAPGKGLEWVSYIKSGSSIIYYADSVKGRFTISRDNAKNSLYLQMNSLRAEDTAVYYCARGGRLVWSPDYWGQGTLVTVSS VL: DIVMTQSPDSLAVSLGERATINCKSSQSLLNSGNQKNYLTWYQQKPGQPPKLLIYWASTRESGVPDRFTGSGSGTDFTLTISSLQAEDVAVYYCQNDYSYPFTFGSGTKLEIKR | 500 nM | 0.0265 s⁻¹ | 53000 M⁻¹ s⁻¹
H1.49_L1 (antibody, human IgG1, kappa, V domains shown, also called VH-S55V; Kabat 52aV; copies: 2 + 2) VH: EVQLVESGGGLVQPGGSLRLSCAASGFTFSSFGMHWVRQAPGKGLEWVSYISVGSSIIYYADSVKGRFTISRDNAKNSLYLQMNSLRAEDTAVYYCARGGRLVWSPDYWGQGTLVTVSS VL: DIVMTQSPDSLAVSLGERATINCKSSQSLLNSGNQKNYLTWYQQKPGQPPKLLIYWASTRESGVPDRFTGSGSGTDFTLTISSLQAEDVAVYYCQNDYSYPFTFGSGTKLEIKR | 92.8 nM | 0.0136 s⁻¹ | 147000 M⁻¹ s⁻¹
H1.43_L1 (antibody, human IgG1, kappa, V domains shown, also called VH-S54Y; Kabat 52Y) VH: EVQLVESGGGLVQPGGSLRLSCAASGFTFSSFGMHWVRQAPGKGLEWVSYIYSGSSIIYYADSVKGRFTISRDNAKNSLYLQMNSLRAEDTAVYYCARGGRLVWSPDYWGQGTLVTVSS VL: DIVMTQSPDSLAVSLGERATINCKSSQSLLNSGNQKNYLTWYQQKPGQPPKLLIYWASTRESGVPDRFTGSGSGTDFTLTISSLQAEDVAVYYCQNDYSYPFTFGSGTKLEIKR | 665 nM | 0.148 s⁻¹ | 223000 M⁻¹ s⁻¹
H1.47_L1 (antibody, human IgG1, kappa, V domains shown, also called VH-S55Q; Kabat 52aQ) VH: EVQLVESGGGLVQPGGSLRLSCAASGFTFSSFGMHWVRQAPGKGLEWVSYISQGSSIIYYADSVKGRFTISRDNAKNSLYLQMNSLRAEDTAVYYCARGGRLVWSPDYWGQGTLVTVSS VL: DIVMTQSPDSLAVSLGERATINCKSSQSLLNSGNQKNYLTWYQQKPGQPPKLLIYWASTRESGVPDRFTGSGSGTDFTLTISSLQAEDVAVYYCQNDYSYPFTFGSGTKLEIKR | 117 nM | 0.0159 s⁻¹ | 136000 M⁻¹ s⁻¹
H1.48_L1 (antibody, human IgG1, kappa, V domains shown, also called VH-S55G; Kabat 52aG) VH: EVQLVESGGGLVQPGGSLRLSCAASGFTFSSFGMHWVRQAPGKGLEWVSYISGGSSIIYYADSVKGRFTISRDNAKNSLYLQMNSLRAEDTAVYYCARGGRLVWSPDYWGQGTLVTVSS VL: DIVMTQSPDSLAVSLGERATINCKSSQSLLNSGNQKNYLTWYQQKPGQPPKLLIYWASTRESGVPDRFTGSGSGTDFTLTISSLQAEDVAVYYCQNDYSYPFTFGSGTKLEIKR | 20.1 nM | 0.00293 s⁻¹ | 146000 M⁻¹ s⁻¹
H1.50_L1 (antibody, human IgG1, kappa, V domains shown, also called VH-S55H; Kabat 52aH; copies: 2 + 2) VH: EVQLVESGGGLVQPGGSLRLSCAASGFTFSSFGMHWVRQAPGKGLEWVSYISHGSSIIYYADSVKGRFTISRDNAKNSLYLQMNSLRAEDTAVYYCARGGRLVWSPDYWGQGTLVTVSS VL: DIVMTQSPDSLAVSLGERATINCKSSQSLLNSGNQKNYLTWYQQKPGQPPKLLIYWASTRESGVPDRFTGSGSGTDFTLTISSLQAEDVAVYYCQNDYSYPFTFGSGTKLEIKR | 24.2 nM | 0.00287 s⁻¹ | 119000 M⁻¹ s⁻¹
H1.51_L1 (antibody, human IgG1, kappa, V domains shown, also called VH-S55K; Kabat 52aK) VH: EVQLVESGGGLVQPGGSLRLSCAASGFTFSSFGMHWVRQAPGKGLEWVSYISKGSSIIYYADSVKGRFTISRDNAKNSLYLQMNSLRAEDTAVYYCARGGRLVWSPDYWGQGTLVTVSS VL: DIVMTQSPDSLAVSLGERATINCKSSQSLLNSGNQKNYLTWYQQKPGQPPKLLIYWASTRESGVPDRFTGSGSGTDFTLTISSLQAEDVAVYYCQNDYSYPFTFGSGTKLEIKR | 54.9 nM | 0.00567 s⁻¹ | 103000 M⁻¹ s⁻¹
H1.52_L1 (antibody, human IgG1, kappa, V domains shown, also called VH-S55Y; Kabat 52aY) VH: EVQLVESGGGLVQPGGSLRLSCAASGFTFSSFGMHWVRQAPGKGLEWVSYISYGSSIIYYADSVKGRFTISRDNAKNSLYLQMNSLRAEDTAVYYCARGGRLVWSPDYWGQGTLVTVSS VL: DIVMTQSPDSLAVSLGERATINCKSSQSLLNSGNQKNYLTWYQQKPGQPPKLLIYWASTRESGVPDRFTGSGSGTDFTLTISSLQAEDVAVYYCQNDYSYPFTFGSGTKLEIKR | 33.1 nM | 0.00423 s⁻¹ | 128000 M⁻¹ s⁻¹
H1.45_L1 (antibody, human IgG1, kappa, V domains shown, also called VH-S55T; Kabat 52aT) VH: EVQLVESGGGLVQPGGSLRLSCAASGFTFSSFGMHWVRQAPGKGLEWVSYISTGSSIIYYADSVKGRFTISRDNAKNSLYLQMNSLRAEDTAVYYCARGGRLVWSPDYWGQGTLVTVSS VL: DIVMTQSPDSLAVSLGERATINCKSSQSLLNSGNQKNYLTWYQQKPGQPPKLLIYWASTRESGVPDRFTGSGSGTDFTLTISSLQAEDVAVYYCQNDYSYPFTFGSGTKLEIKR | 74.5 nM | 0.0091 s⁻¹ | 122000 M⁻¹ s⁻¹
H1.56_L1 (antibody, human IgG1, kappa, V domains shown, also called VH-G56T; Kabat 53T; copies: 2 + 2) VH: EVQLVESGGGLVQPGGSLRLSCAASGFTFSSFGMHWVRQAPGKGLEWVSYISSTSSIIYYADSVKGRFTISRDNAKNSLYLQMNSLRAEDTAVYYCARGGRLVWSPDYWGQGTLVTVSS VL: DIVMTQSPDSLAVSLGERATINCKSSQSLLNSGNQKNYLTWYQQKPGQPPKLLIYWASTRESGVPDRFTGSGSGTDFTLTISSLQAEDVAVYYCQNDYSYPFTFGSGTKLEIKR | 31.5 nM | 0.00407 s⁻¹ | 129000 M⁻¹ s⁻¹
H1.38_L1 (antibody, human IgG1, kappa, V domains shown, also called VH-S54Q; Kabat 52Q; copies: 2 + 2) VH: EVQLVESGGGLVQPGGSLRLSCAASGFTFSSFGMHWVRQAPGKGLEWVSYIQSGSSIIYYADSVKGRFTISRDNAKNSLYLQMNSLRAEDTAVYYCARGGRLVWSPDYWGQGTLVTVSS VL: DIVMTQSPDSLAVSLGERATINCKSSQSLLNSGNQKNYLTWYQQKPGQPPKLLIYWASTRESGVPDRFTGSGSGTDFTLTISSLQAEDVAVYYCQNDYSYPFTFGSGTKLEIKR | 57.5 nM | 0.00776 s⁻¹ | 135000 M⁻¹ s⁻¹
H1.46_L1 (antibody, human IgG1, kappa, V domains shown, also called VH-S55A; Kabat 52aA) VH: EVQLVESGGGLVQPGGSLRLSCAASGFTFSSFGMHWVRQAPGKGLEWVSYISAGSSIIYYADSVKGRFTISRDNAKNSLYLQMNSLRAEDTAVYYCARGGRLVWSPDYWGQGTLVTVSS VL: DIVMTQSPDSLAVSLGERATINCKSSQSLLNSGNQKNYLTWYQQKPGQPPKLLIYWASTRESGVPDRFTGSGSGTDFTLTISSLQAEDVAVYYCQNDYSYPFTFGSGTKLEIKR | 41.9 nM | 0.00529 s⁻¹ | 126000 M⁻¹ s⁻¹
H1.55_L1 (antibody, human IgG1, kappa, V domains shown, also called VH-G56S; Kabat 53S; copies: 2 + 2) VH: EVQLVESGGGLVQPGGSLRLSCAASGFTFSSFGMHWVRQAPGKGLEWVSYISSSSSIIYYADSVKGRFTISRDNAKNSLYLQMNSLRAEDTAVYYCARGGRLVWSPDYWGQGTLVTVSS VL: DIVMTQSPDSLAVSLGERATINCKSSQSLLNSGNQKNYLTWYQQKPGQPPKLLIYWASTRESGVPDRFTGSGSGTDFTLTISSLQAEDVAVYYCQNDYSYPFTFGSGTKLEIKR | 33.9 nM | 0.00457 s⁻¹ | 135000 M⁻¹ s⁻¹
H1.44_L1 (antibody, human IgG1, kappa, V domains shown, also called VH-S54E; Kabat 52E) VH: EVQLVESGGGLVQPGGSLRLSCAASGFTFSSFGMHWVRQAPGKGLEWVSYIESGSSIIYYADSVKGRFTISRDNAKNSLYLQMNSLRAEDTAVYYCARGGRLVWSPDYWGQGTLVTVSS VL: DIVMTQSPDSLAVSLGERATINCKSSQSLLNSGNQKNYLTWYQQKPGQPPKLLIYWASTRESGVPDRFTGSGSGTDFTLTISSLQAEDVAVYYCQNDYSYPFTFGSGTKLEIKR | 183 nM | 0.0225 s⁻¹ | 123000 M⁻¹ s⁻¹
